# Measured values reported in the RNAGym collection of RNA variant scans (doi:10.1073/pnas.2313332121).
# B1: TPR t1 (parent)
# chain: GACCAAUCUGCCCUCAGAGCUCGAGAACAUCUUCGGAUGCAGAGGAGGCAGGCUUCGGUGGCGCGAUAGCGCCAACGUCCUCAACCUCCAAUGCAUCCCACCACAUGAUGAUGCCUGAAGAGCCUUGGUUUUUUG
# Variants of: B1
# Assay: polymerase ribozyme fitness, log enrichment relative to wild type (log ratio); higher = more active; in vitro selection for triplet polymerase activity
# Method in brief: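 Fitness is a logarithmic measure of how a genotype enriched relative to the wild type, with replicate averages weighted by inverse variance. The logarithm uses base 2, and enrichment came from Illumina sequencing of input and output libraries. Those libraries were PCR-built, transcribed mutants of each subunit of a heterodimeric triplet polymerase ribozyme, passed through one triplicate in vitro selection round that included frozen incubation at −7 °C, gel excision of extended constructs and streptavidin-bead capture. Genotypes were kept only if they had ≥10 input reads and ≥1 read per output.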
row,Variant,polymerase ribozyme fitness (log ratio)
1,C73U C85A G120U,-0.527
2,A74U A84U A91C C102G G113U C115G A118G G128U,-7.73
3,C72U C80U C82A U129G,-2.75
4,C72U U78C,-0.528
5,C73G C114U,-3.1
6,C72U A121U,1.5
7,C72U A121C,1.6
8,C72U A121G,0.744
9,A74C U126G,-2.5
10,C73U C98U,-0.593
11,C72U A111C A121U G128A,-1.12
12,C72U A100C,-1.3
13,C72U A100U,-0.925
14,C72U U78C A83U A90G A121G,1.89
15,C73A C101G,-1.26
16,C73A C101U,0.2
17,C73A C94U,0.44
18,C72U C94U G127U,-1.75
19,C72U U78C C82G C101A A121C,-0.0659
20,C72U C94G C101A,-2.57
21,C73U U87C C88U A111G C123A,-2.06
22,C73G A105C,-3.81
23,C72U U112A G120C,0.504
24,C72U A83G C85U,-1.39

row,Variant,polymerase ribozyme fitness (log ratio)
1,C73A U112A A121U U125A,1.73
2,C72U U125G,-2.26
3,C72U U125C,-1.92
4,C73G G120C U130A,-0.0194
5,C72U C115U,-0.526
6,C72U C115G,-2.33
7,C73G A83G,-1.44
8,C72U G77U A100C A118U U129C,-2.77
9,C73G C124U,0.25
10,C72U A118U G120U,-0.322
11,A74C C102U,-1.76
12,C72U U87G,-1.61
13,A74C U87G U129C,-0.576
14,C73G C89G U131A,-2.56
15,C73A C99U A118G,-3
16,A74G A91G G93C G120C,-2.64
17,C72U G113A U126A,-2.61
18,C73G C98U U129C,-1.94
19,A74C C102G U112C,-4.5
20,C72U U130G,-0.892
21,C72U U130C,-0.237
22,C72U U130A,-1.42
23,C73G C85U G117C U133A,-6.98
24,A74G A103G G117U U133G,-6.53

row,Variant,polymerase ribozyme fitness (log ratio)
1,C73U G93A,-0.23
2,C73A A74U C85U C94U C115U,-3.24
3,C73G A75U A83U,-1.08
4,C72U C124U G135A,2.03
5,C73A C115G,-2.61
6,C73A C115U,-1.36
7,C73U A83G,-1.56
8,C73G U109A C114U C123A U130G U132A,-4.38
9,C72U A119G,0.547
10,C73U G113U,-3.18
11,C73U G113C,-1.54
12,A74C U92C G127A,-2.3
13,C72U C94U,-0.599
14,C73A C94A C102A,-2.96
15,A74C G117U,-2.81
16,C73U U109A,-4.25
17,C73U C79G A119G C123A,-0.377
18,C73U C124A,2.11
19,A74G C101A,-0.767
20,C73U U92G,-2.88
21,C73A U116A C124A,0.809
22,C72U C85U G93U,-2.45
23,C73A U87G U129A,-1.12
24,A74G A100U G128U,-3.08

row,Variant,polymerase ribozyme fitness (log ratio)
1,C72U U109G,-4.62
2,C73U C88U U125G,-1.1
3,A74U A119G,0.812
4,C72U C79U C82A,-0.964
5,C72U U87G C104A,-0.492
6,C72U A91G,-1.21
7,C72U G93A C115U,-1.52
8,C73U C79U U87A,-0.627
9,A74U,-0.247
10,A74C,-0.272
11,A74G,0.0609
12,C73G C89A C99A G110C,-6.57
13,C73G G127U,-1.75
14,C73U A119G C123G,2.02
15,C72U G135U,-1.38
16,C73U G77C G93A C124U U126G,-1.68
17,C72U A118U,0.0221
18,C72U C101G G120C,-1.35
19,C72U A121C U131C,0.346
20,A74G A75U U106G,-1.96
21,C73G A91G,-2.69
22,C72U A84U C85U C104U,-0.48
23,C72U G77C,-1.07
24,C73U C86U U96C A119G U131C,0.735

row,Variant,polymerase ribozyme fitness (log ratio)
1,C73A C86A,-0.668
2,C72U G113U G120U U130C,-3.5
3,C72U C102A C123G,-0.477
4,A74C A83C,-0.243
5,C72U C80A,-5.24
6,C72U C80U,-1.08
7,C73U C79A A95G,-0.961
8,C72U U112G,0.605
9,C73U C94U,-0.847
10,A74C C89A A91G C102A U109G,-5.5
11,C73A G135U,-1.25
12,A74C C89A U96A C115A,-3.51
13,C72U C80A U87C,-3.67
14,C73A A90G G107A G117U,-6.33
15,C72U C82A A84C A111C,0.731
16,A74G A83C C114A C123G C124G,-0.429
17,C73U G93C G113A C124G,-1.29
18,A74G G77U C98U C104A,-2.74
19,C73G A100C,-1.47
20,C72U U132G G135U,-0.759
21,C72U A100U A108G,-1.87
22,C73G C104G A121G,-5.73
23,C72U A83U A90G C114G,-1.45
24,C73G G113C C123U G135A,-3.03

row,Variant,polymerase ribozyme fitness (log ratio)
1,C72U C97U G120A G122A,-1.22
2,C72U C73A U81A C85U G122A,-4.88
3,C73U A100C,-1.34
4,C72U U78C U81A A83G,-1.17
5,C73G C85G G120A,-2.18
6,C73U U130C,0.504
7,C73U A83U G110A G128U,-4.9
8,A74G A91C C124G,0.0731
9,C72U U96G U106A G113A,-2.89
10,C73A A95G C104A G110U,-3.5
11,C73G G117U,-3.09
12,C73G G117A,-0.876
13,C73G G117C,-3.91
14,C72U C114U C115U,-7
15,A74C C80A C101G C123A,-4.26
16,C73G A108C A118U C123G,-4.86
17,C73G C101A,-1.3
18,C73A G117C,-2.37
19,C73G C123G,1.2
20,C72U C101G C115U,-3.38
21,C73A U109G,-4.56
22,C73U G110A G117A C124U,-4.95
23,C73U U125C,-2.06
24,C72U A103U U125G,-6.8

row,Variant,polymerase ribozyme fitness (log ratio)
1,C72U C76A C98U,-1.75
2,C73A U92A,-2.45
3,C73A U92C,-0.541
4,C73G U125A,-1.21
5,C73U C97A,-3.58
6,A74G C86U U109A U126G,-5.87
7,C72U C97G,-4.65
8,C72U C97A,-5.06
9,C73A C102U,-0.943
10,A74C C97U G120A G122A,-1.46
11,C72U C102A G128A,-4.14
12,C73U G128U,-1.62
13,C72U G110C G128U,-6.47
14,A74U C88A C104A,-2.72
15,C73U C104A,-1.22
16,C73U,0.0933
17,C73G,-0.606
18,C73A,0.0792
19,C73G A121C G122A,0.495
20,C72U U78C A83C,-0.433
21,A74C C82A G113U C124A G128C U131G,-4.12
22,C72U A84C C124U,1.07
23,C73U C80G A118U,-4.47
